Assay results published in article PMC9124786, “A One-Step Electrochemical Aptasensor Based on Signal Amplification of Metallo Nanoenzyme Particles for Vascular Endothelial Growth Factor”.

Molecular target: VEGF165 (VEGF A165) (UniProt P15692-4 27-191)
Assay: electrochemical impedance spectroscopy (aptasensor); 10 pg/ml-1 ug/ml VEGF, 60 min; LOD 8.2 pg/ml (not a Kd); VEGF incubated 60 min (37 C in the time optimisation) on BSA-blocked aptamer/CME NP electrode, water wash; EIS in 0.1 M PBS pH 7.4 with 5 mM [Fe(CN)6]3-/4-
Conditions: protein: commercial; chain copies: 2; hairpin

Chain of VEGF165 (VEGF A165) (P15692 other isoform, or with tags, fused parts or gaps): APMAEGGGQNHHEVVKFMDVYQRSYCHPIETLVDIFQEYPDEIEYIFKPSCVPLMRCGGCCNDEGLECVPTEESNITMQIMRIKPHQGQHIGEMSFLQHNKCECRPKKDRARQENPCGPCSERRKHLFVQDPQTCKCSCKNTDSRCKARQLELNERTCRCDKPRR

B1: VEGF aptamer with 5' A10 spacer (structured_DNA)
DNA: AAAAAAAAAACCGTCTTCCAGACAAGAGTGCAGGGAAAAAGAAGACGG
modifications: 5' carboxylic acid
Q: Does B1 bind?
A: binds
